Data as given in patent CN101798349A (INST BIOENGINEERING AMMS, dated 2010).

Molecular target: T1, uPAR蛋白 (尿激酶型纤溶酶原激活物受体, R&D Systems 807-UK-100) (UniProt Q03405 23-303, limits assumed)
T1 construct: Bought protein; also called 抗原uPAR
Assay: SPR, Biacore 3000, CM5 chip, HBS-EP pH 7.4, 0-100 nmol/L, mean of 3 repeats

T1 sequence (Q03405 23-303 limits assumed): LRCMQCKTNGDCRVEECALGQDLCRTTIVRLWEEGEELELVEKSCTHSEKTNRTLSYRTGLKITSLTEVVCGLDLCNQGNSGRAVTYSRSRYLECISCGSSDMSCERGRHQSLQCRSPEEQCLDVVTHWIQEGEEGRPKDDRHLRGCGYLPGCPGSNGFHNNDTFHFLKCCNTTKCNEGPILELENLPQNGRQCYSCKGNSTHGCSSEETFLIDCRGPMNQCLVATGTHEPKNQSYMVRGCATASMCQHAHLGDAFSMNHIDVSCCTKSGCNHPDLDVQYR

Kd: 14.9 nM
B1: 抗uPAR人源化抗体Y2B (antibody, V domains shown)
VH: EVQLVQSGAEVKKPGSSVKVSCKASGYTFTDYYIHWVRQAPGQGLEWIGWIFHGSDNTEYNEKFKSKATITADESTSTAYMELSSLRSEDTAVFYCARWGPHWYFDAWGRGTLVTVSP
VL: DIQMTQSPSTLSASVGDRVTITCRASSSVSYIHWYQQKPGRAPKPLMYEASSRATGVPSRFSGSGSGTEYTLTISSLQSDDFATYYCQQWNYPFTFGQGTKLEIKR
notes: also called 抗uPAR抗体Y2B; Y2B抗体
